Measured values taken from PMC4933465.
pKd: −log10 of the molar value.

Experiments:
[1] = target: Link_TSG6 (recombinant Link module from human TSG-6) (human) (UniProt P98066); assay: SPR; Link_TSG6 amine-coupled to a C1 chip (800–1000 RU), chemokine as analyte; BIAcore 3000; 10 mM HEPES, 150 mM NaCl, 0.05% Tween 20, pH 7.4; 40 μl/min; 1:1 Langmuir model; apparent affinities
Biotinylated CCL21 = Biotinylated CCL21 (UniProt O00585)
CCL2 = CCL2 (UniProt P13500)
CCL7 = CCL7 (UniProt P80098)
Chain of CCL7 (P80098 24-99): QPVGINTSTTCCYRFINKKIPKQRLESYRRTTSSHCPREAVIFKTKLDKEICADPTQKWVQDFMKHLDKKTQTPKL

Chain of Link_TSG6 (recombinant Link module from human TSG-6) (human) (P98066 36-133): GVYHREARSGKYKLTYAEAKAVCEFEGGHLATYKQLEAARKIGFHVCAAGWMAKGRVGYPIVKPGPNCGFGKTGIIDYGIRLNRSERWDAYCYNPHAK
Chain of Link_TSG6 (recombinant Link module from human TSG-6) (P98066 36-133): as above
Chain of Biotinylated CCL21 (O00585 24-134): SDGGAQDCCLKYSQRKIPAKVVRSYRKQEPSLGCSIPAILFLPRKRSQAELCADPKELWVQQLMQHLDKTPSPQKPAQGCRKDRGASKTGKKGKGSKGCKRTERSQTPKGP
Chain of CCL2 (P13500 24-99): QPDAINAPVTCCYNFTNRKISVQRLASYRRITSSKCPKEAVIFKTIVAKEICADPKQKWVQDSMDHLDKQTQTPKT

pKd [1]	koff [1]	kon [1]	accumulation of biotinylated CCL21 (50 nM) on EaHY926 endothelial cells after pre-incubation with Link TSG6 at a 1:1 molar ratio (% of chemokine alone) (Biotinylated CCL21)	accumulation of biotinylated CXCL4 (10 nM) on EaHY926 endothelial cells after pre-incubation with a 5-fold molar excess of Link TSG6 (% of chemokine alone) (Biotinylated CXCL4)	accumulation of CCL2 (50 nM) on EaHY926 endothelial cells after pre-incubation with Link TSG6 at 1:1 to 5:1 molar ratio (∼75 to ∼55% of chemokine alone) (% of chemokine alone) (CCL2)	accumulation of CCL7 (50 nM) on EaHY926 endothelial cells after pre-incubation with Link TSG6 at a 1:1 molar ratio (% of chemokine alone) (CCL7)	Substance
8.41	0.0014 s⁻¹	360000 M⁻¹ s⁻¹	–	–	–	–	CXCL4 (ligand)
–	–	–	50	51	75	50	Link_TSG6 (recombinant Link module from human TSG-6) (from UniProt P98066 36-133) (domain or fragment)
